Source: the nanobody polyreactivity screen of Harvey et al. (2022)

experiment: yeast display, Sf9 membrane polyspecificity reagent, FACS + sequencing; frameworks hold sequencing errors
Procedure, shortened: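 After 36–48 hours of galactose induction, yeast (Saccharomyces cerevisiae BJ5465) displaying a synthetic nanobody library were stained at 4 °C for 1 hour with 10% biotinylated, detergent-solubilized Sf9 membrane reagent. Streptavidin microbeads enriched the stained cells before FACS sorting into low and high (top ~1%) gates on anti-HA and streptavidin fluorescence. Each clone's polyreactivity label reflects its gate of origin.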

Row | Sequence | polyreactivity (PSR sort gate)
1 | QVQHVESGGGLVQAGGSLRLSCAASGSTFRYYTMGWYRQAPGKERELVAAISGSGGITYYADSVKGRFTISRDNAKNTVYLQMNSLKPEDTAVYYCNAGVFYRDDYWGQGTEVTVSS | high polyreactivity
2 | QVQLVESGGGLVQAGGSLRLSCDASGSTFVGYTMGWYRQAPGKERELVAAITWRGGITYYADSVKGLFTISRDNAKNTVYLQMKSLKPEDTAVYYCAGARYRHGRSGTYDVTGEYWGQGTQVTVSS | high polyreactivity
3 | QVQLVESGGGLVQAGGSLRLSCAASGSTFGYYAMGWYRQAPGKERELVAAISYSGGSTYYADSVKGRFTISRDNAKNTVYLQMNSLKPAVTAVYYCAARFTRQMYYWGQGTQVTVSS | high polyreactivity
4 | QVQLLESGGGLVQAGGSLRLSCAASGSIIRQNGMVWYRPAPGKEREFVAAITRTGGSTYYADSVKGRFTISRDNAKNTVYLHMNSLKPEDTAGYYCAARGGYRYTRYDYWGQGTQVTVSS | high polyreactivity
5 | QVQLVESGGGLVQAGGSRRLSCAASGSIFTSNAMGWYRQAPGNERDLVAVITGSTGRTHYADSVKGRFTISRDNAMNTVYLQMNSLKPEDTAVYYFSAGLTFVTNFDYWGQGTHVTVSS | low polyreactivity
6 | QVQLVESGGGLVQAGGSLRLSCAASGITFTSYVMGWYRQAPGKERELVAAISRSGGSSTYYADSVKGRFTISRDNAKNTVYLQMNSLKPEDTAVYYCAADSPYTGGANVYWGQGTQVTVSS | high polyreactivity
7 | QVQLVESGGGLVQAGGSLRLSCAASGLTFTTYAMGWYRQAPGKERELVAAISRRGSRTYYADSVKGRFTISRDNAKNTVYLQMNSLKPEDTAVYYCNALTGSFKTYSFDYWGQGTQVTVSS | high polyreactivity
8 | QVQLVESGGGLVQAGGSLSLSCAASGRTFSPYAMGWYRQAPGKERELVAAITNGGSTHYADSVKGRFTISRDNAKNTVYLQMNTLKPEYTAVYYCAKSRVLYGYAEYYEMDYWGQGTQVTVSS | low polyreactivity
9 | QVQLVESGGGLVQAGGSLRLSCAASGSTFGTYAMGWYRQAPGKERELVAAISSGDSTTYADSVKGRFTISRDNAKNTVYLQMNSLKPEDTAVYYCAARVPYKSDYWGQGTQVTVSS | low polyreactivity
10 | QVQLVESGGGLVQAGGSLRLSCAASGRIFKYYTMGWYRQAPGKERELVARISSSGGSTYYADSVKGRFTISRDNAKNTVYLQMNSLKPEDTAVYYCNTRAAYHQTTHKYERDYWGQGSQVTVSS | low polyreactivity
11 | QVQLVESGGGLVQAGGSLRLSCAASGFSFKLYAMGWYRQAPGKEREFVAAINRSGGSTYYADSVKGRFTISRDNAKNTVYLQMNSLKPEDTAVYYCAALAYTLYDYWGQGTQVTVSS | high polyreactivity
12 | QVQLVESGGGLVQAGGSLRLSCAASGSIFKGYALGWYRQAPGKERELVAAITYSGGGTYYADSVKGRFTISRDNAKNTVYLQMNSLKPEDTAVYYCNADRYYPDDLSDGVGTYDYWGQGTQVTVSS | low polyreactivity
13 | QVQLEESGVGLVQAGGSLRLICAASGFTFYSYAMGWYRQAPGKERELVASISWRGGSTYYADSVKGRFTISRDNAKNTVYLQMNSLKPVDTAVYYCAAQKRGSPVYRRDYWGQGTEVTVSS | high polyreactivity
14 | QVQLVESGGGLVQAGGSLRLSCAASGRTFITYAMGWYRQAPGKERELVAAISWNGGTTYYADSVKGRFTISRDNAKNTVYLQMNSLKPEDTAVYYCAAYRWYSAARMGYWGQGTQVTVSS | high polyreactivity
15 | QVQLVESGGGLLQAGGSLRLSCAASGSIFTAYAMGWYRQAPGKESELVAAIDDSGDSTYYADSVKGRFTISRDNAKHTVYLQMNSLKTEDTAVYYCKAEYRVNKEYDDWGQGTQVTVSS | low polyreactivity
16 | QVQLVESGGGLVQAGGSLRLSCAASGFAFSYYAMGWSRQAPGKEREFVASIDWSGGSTYYADSVKGRFTISRDNAKNTVYLQMNSLKPEDTAVYYCAAELDYFPGYDYWGQGTQVTVSS | low polyreactivity
17 | QVQLVESGGGLVQAGGSLRLSCAASGFTFTYYTMGWYRQATGKERELVAGISRSGGSTYYADSVKGRFTISRDYAKNTVYLQMNSLKPVDTAVYYCAAGSIQYRPTYTGDYWGQGTQVTVSS | high polyreactivity
18 | QVQLVESGGGLVQAGGSLRLSCAASGRIFKRNAMGWYRQAPGKERELVAAINWSGGSTYYADSVKGRFTISRDNAKNTVYLQMNSLKPEDTAVYYCAALRVQGDYDYWGQGTQVTVSS | high polyreactivity
19 | QVQLVESGGGLVQEGGSLRLSCAASGSTFLTYAMGWYRQAPGKERELVAGITRSGASTYYADSVKGRFTISRDNAKNTVYLQMNSLKTEDTAVYYCAATYISHFHRYYYWGQGTQVTVSS | high polyreactivity
20 | QVQLIESGGGLVQAGGSLRLSCAASGRTFRRYAMGWYRQAPGKERELVAAIDASGGSTYYADSVMGRFTISRDTSKNTVYLQMTILKQEDSAVSYCNTCSGQLQLQGGRHEYWGQGTQVTVSS | high polyreactivity
21 | QVQLVESGGGLVQAGGSLRLSCAASGITFAENAMGWFRQAPGKERELVAAISGSGVDTYYADSVKGRFTISRDNAKNPVYLQMNSVKPEDTAVYYSNAVYYRSSYPSGRYGMDYWGQGTQVTVSS | high polyreactivity
22 | QVQLVESGGGLVQAGGSLRLSCAASGGTFQINAMGWYIQAPGKERELVAAISRSGGSTSYADSVKGRFTISRDNAKNTVYLQMNSLKPQDTAVYYCNKRVRATAWYDYWGQGTQVTVSS | high polyreactivity

Row | Sequence | polyreactivity (PSR sort gate)
23 | QVHLVESGGGLVQAGGSLRLSCAASGRTIGWNVMGWYRQAPGKERELVAAISGSGITYADSVKGRFTISRDNAKNTVYLQMNSLKPEDTAVYYCAARARRYTDEYDYWGQGTQVTLSS | low polyreactivity
24 | QVQLVESGGGLVQAGGSLRLSCAASGSIFNTIALGWYRQAPGKESELVASISSDGGTNYADSLKGRFTISRDNAKNTVYLQMNRLKPEDTAVYACATTQEYSGQRTPGYDYWGQVTQVTVSS | low polyreactivity
25 | QVQLGESVGGLVQAGGSLRLSCAASGSILFPYPMGWYRQAPGKERELVAAISWSGDSTRYADSVKGRFTISRDNAKNTVYLQMNSLKPEVTAVYYCATSSDATGTFAPMDSWGQGTQVTVSS | low polyreactivity
26 | QVQHVESGGGIVQAGGSLRLSCAASVRTIPYNAMGRYRQAPGKERELVAAISTGGSTNYADSVKGRFTISRDNAKNTVYLQMNSLKPEDTAVYYCNTRYRWARNWAYYYWGQGTQVTVSS | high polyreactivity
27 | QVQLVESGGGLVQAGGSLRLSCAASGFTFYTNAMGWYRQAPGKERELVAGINSGSSTYYADSVKGRFTISRDNAKNTVYLQMNSLKPEDTAVYYCAARARRRYYYWGQGTQVTVSS | high polyreactivity
28 | QVQLVESGGGLVQAGGTLRLSCAASGRIFSDYAMGWYRQAPGKEREFVAAISSSGGRTYYADSVKGRFTISRDNAKNTVYLQMNSLKPEDTAVYYCNRYNGYYNTGRYGYLGQGTQVTVSS | high polyreactivity
29 | QVQLVESGGGLVQAGRSLRLSCAASGRTYGIYAMGWYRQAPGKERQLVAAITWSGDSTYYADSVKGRFTISRDNAKNTVYLQMNSLKPEDTAVYYCAADYVGVTSVRYDYWGQGTQVTVSS | low polyreactivity
30 | QVQLVESGGGLVQAGGSLRLSCAASGRTFRRYVMGWYRQAPGKERELVAAISYSGATTYYADSVKGRFTISRDNAKNTVYLQMNSLKPEDTAVYYCAATAPGDRYYWGQGTQVTVSS | high polyreactivity
31 | QVQLVESGGGLVQAGGSLRLSCAASGRTFRYYAMGWYRQAPGKERELVAAITRSGGSTNYADSVKGRFTISRDNAKNTVYLQMNSLKPEDTAVYYCNREGRSVSGYYYYWGQGTQVTVSS | high polyreactivity
32 | QVQLVESGGGLVQAGGSLRLSCAASGYTFSANADMGWYRQAPGKESELVAAITGSGGITYYADSVKGRFTISRDNAKNTVYLQMNSLKPEDTAVYYCAAAVVDAAFDYWGQGTQVTVSS | low polyreactivity
33 | QVQLVESGGGLVQAGGSLRLSCAASGITFATNAMGWYRQAPGKERDLVAGITSGGSTYYADSVKGRFTISRDNAKNTVYLQMNSLKPEDTAVYYCAKRYHYWYGTGYDYWGQGTQVTVSS | low polyreactivity
34 | QVQLVESGGGLVQAGGSLRLSCAASGSTFWGNAMGWYRQAPGKERELVAAIDWSGGRTYYADSVKGRFTISRDNAKNTVYLQMNSLKPEDTAVYYCATRAWRGYVPYDYWGQGTQVTVSS | high polyreactivity
35 | QVQLVESGGGLVQAGGSLRLSCAASGRTFRYNAMGWYRQAPGKERELVAAISRGANTNYADSVKGRFTISRDNAKNTVYLQMNSLKPEDTAVYYCAAVPGYRFYYWGQGTQVTVSS | high polyreactivity
36 | QVQLVESGGGLVQAGGSLRLSCAASGFIFSIYVMGWYRQAPGKERELVATISSTGSTNYADSVKGRFTISRDNAKNTVYLQMNSLKPEDTAVYYCAAYRRWWGQGTQVTVSS | high polyreactivity
37 | QVQRVESGRGLVQAGGRLRLSCAASGFIFDRNVMGLYRQAPGNERELVAAISSSGGSTYYADSVKGRFTISRDNAKNTVYLQMNSLKPEDTAVYYCNRLAYRNMDYWGQGTQVTVSS | high polyreactivity
38 | QVQLVESGGGLVQAGGSLRLSCAASGRIFYANAMGWYRQAPGKERELVAAISSGGSTYYADSVKGRFTISRDNAKNTVYLQMNSLKPEDTAVYYCAVYTHKKVRPEYDYWGQGTQVTVSS | low polyreactivity
39 | QVQLVESGGGLVQAGGSLRLSCAASGFIIYLYAMGWSRQAPGKERELLAAISRGGGTTYYADSVKGRFTISRDYAQNTVYLQMNSLKPEDTAVYYCAAETEYYSYRFDYWGQGTQVSVSS | high polyreactivity
40 | QVQLVESGGGLVQAGGSLRLSCAASGRIFWDNAMGWYRQAPGKERELVAAISDSVVITYYADSVKGRFTISRDTAKNTVYLQMNSLKPEDTAVYYCGADKRGTVYLSSFWMDYWGQGTQVTVSS | low polyreactivity
41 | QVQLVESGGGLVQAGGSLRVSCAASGRIFVDYAMGWYRQAPGKERELVAAISRRGGSTYYADSVKGRFTISRDNAKNTVYLQMNSLKPEDTAVYYCNALVNSGGGYGATEYDYWGQGTQVTVSS | high polyreactivity
42 | QVQLVESGGGLVQAGGSLRLSCAASGSIFQFYAMGWYRQAPGKERELVADISYGGSTYYADSVKGRFTISRDNAKKTVYLQMNSLKPEDTAVYYCAAAAYWWVKGFGSYYWGQGTQVTVSS | high polyreactivity
43 | QVQLVESGGGLVQAGGSLRLSCAASGSIYRTNAMGWYRQAPGKERELVAAITGSGGSTYYADSVKGRFTISRDNAKNTVYLQMNSLKPEDTAVYYCAAEFGSFVSPYNYYYWGQGTQVTVSS | low polyreactivity
